Reference: publication PMC11194109, “Structural basis for double-stranded RNA recognition by SID1” (Nucleic Acids Research, 2024)

Biological target: the molecule itself
Assay: cryo-EM structure; purified cSID1 in 25 mM HEPES pH 7.4, 150 mM NaCl, 0.01% GDN; apo and mixed with 100 uM 50-bp dsRNA; C2 symmetry imposed (the dsRNA complex also refined in C1)

B1: Caenorhabditis elegans systemic RNAi-defective protein 1 (SID1) (natural protein, UniProt Q9GZC8 18-776, looked up)
chain: QNNSTTPSPIITSSNSSVLVFEISSKMKMIEKKLEANTVHVLRLELDQSFILDLTKVAAEIVDSSKYSKEDGVILEVTVSNGRDSFLLKLPTVYPNLKLYTDGKLLNPLVEQDFGAHRKRHRIGDPHFHQNLIVTVQSRLNADIDYRLHVTHLDRAQYDFLKFKTGQTTKTLSNQKLTFVKPIGFFLNCSEQNISQFHVTLYSEDDICANLITVPANESIYDRSVISDKTHNRRVLSFTKRADIFFTETEISMFKSFRIFVFIAPDDSGCSTNTSRKSFNEKKKISFEFKKLENQSYAVPTALMMIFLTTPCLLFLPIVINIIKNSRKLAPSQSNLISFSPVPSEQRDMDLSHDEQQNTSSELENNGEIPAAENQIVEEITAENQETSVEEGNREIQVKIPLKQDSLSLHGQMLQYPVAIILPVLMHTAIEFHKWTTSTMANRDEMCFHNHACARPLGELRAWNNIITNIGYTLYGAIFIVLSICRRGRHEYSHVFGTYECTLLDVTIGVFMVLQSIASATYHICPSDVAFQFDTPCIQVICGLLMVRQWFVRHESPSPAYTNILLVGVVSLNFLISAFSKTSYVRFIIAVIHVIVVGSICLAKERSLGSEKLKTRFFIMAFSMGNFAAIVMYLTLSAFHLNQIATYCFIINCIMYLMYYGCMKVLHSERITSKAKLCGALSLLAWAVAGFFFFQDDTDWTRSAAASRALNKPCLLLGFFGSHDLWHIFGALAGLFTFIFVSFVDDDLINTRKTSINIF
modifications: N-linked glycans (three glycosylation sites observed in BRD2)
notes: signal peptide in the construct; full-length cDNA in pCAG; His6 and FLAG tags were inserted after the signal peptide; also called cSID1; apo-cSID1; source: HEK293F, transiently transfected (pCAG), purified (anti-FLAG M2, Ni-NTA, SEC in GDN)
With B1 the “stoichiometry N” value was 2.
